Assay results from paper PMC11445239.
Several values for one entry are separate records, joined by “and”; a condition that tells them apart may be missing. Equal values may be shown once. Values belong to the substance of their own block, whether it stands above or below them.

What was measured:
[1] = target: activated (Caspase 11-cleaved) mGSDMD-C192A-mEGFP (mouse); experiment: single-molecule TIRF imaging with intensity-based stoichiometry analysis; preformed supported lipid bilayer (Egg PC:PI(4,5)P2 99:1 mol %) on glass incubated with 0.5, 1 or 2 nM protein (pre-cleaved WT or mutants, or full-length at 2 nM) for 1 h, washed 15 times with SLB buffer
[2] = target: activated (Caspase 11-cleaved) mGSDMD-mEGFP, mGSDMD(NTD)-mEGFP (mouse); experiment: single-molecule TIRF imaging with intensity-based stoichiometry analysis; 2 nM mGSDMD-mEGFP with 20 nM Caspase 11 incubated with LUVs (Egg PC:PI(4,5)P2 99:1 mol %) for 1 h (same pattern at 5 and 2 min and after H2O2), proteoliposomes then fused into a supported lipid bilayer on glass; SLB buffer 150 mM NaCl, 10 mM Hepes pH 7.4
[3] = target: activated (Caspase 11-cleaved) mGSDMD-mEGFP, mGSDMD(NTD)-mEGFP (mouse); experiment: single-molecule TIRF imaging with intensity-based stoichiometry analysis; preformed supported lipid bilayer of 100% Egg PC (no PI(4,5)P2) incubated with 2 nM active mGSDMD-mEGFP for 1 h, washed
[4] = target: activated (Caspase 11-cleaved) mGSDMD-mEGFP, mGSDMD(NTD)-mEGFP (mouse); experiment: single-molecule TIRF imaging with intensity-based stoichiometry analysis; preformed supported lipid bilayer (Egg PC:PI(4,5)P2 99:1 mol %) on glass incubated with 0.5, 1 or 2 nM protein (pre-cleaved WT or mutants, or full-length at 2 nM) for 1 h, washed 15 times with SLB buffer
[5] = target: activated (Caspase 11-cleaved) mGSDMD-C39A-C57A-mEGFP (mouse); experiment: as above

stoichiometry N [1]: 3 and 2
Substance: activated (Caspase 11-cleaved) mGSDMD-C192A-mEGFP (domain or fragment)

stoichiometry N [2]: 2 and 3 | stoichiometry N [3]: 2 | stoichiometry N [4]: 5 and 6 and 9
Substance: activated (Caspase 11-cleaved) mGSDMD-mEGFP, mGSDMD(NTD)-mEGFP (domain or fragment)

stoichiometry N [5]: 2 and 3 and 4
Substance: activated (Caspase 11-cleaved) mGSDMD-C39A-C57A-mEGFP (domain or fragment)
